Experiments:
Format in all cases: cell-based, human
Jurkat T leukemic cells = assay: F-actin and G-actin cell content
Method: Cellular shape changes (such as cell spreading) as well as T-cell activation are associated with changes in the cytoskeletal actin network manifested by alteration of the ratio of globular actin (G-actin) to filamentous actin (F-actin). To test whether the engagement by ICAM-R antibodies of ICAM-R expressed on Jurkat T leukemic cells would induce changes in cellular actin ratios, studies measuring F-actin and G-actin cell content were carried out by methods known in the art.

[1] = test system: Fraction C cells (quiescent CD3 positive PBL); assay: IL-2 production by T lymphocytes after prepulse on antibody; conditions: 18 hours prepulse on immobilized antibody, then anti-CD3 OKT3
Method: Human PBL were obtained by Ficoll-Hypaque centrifugation of whole peripheral blood. Adherent cells were depleted by incubation on plastic and nonadherent cells were subjected to discontinuous centrifugation on Percoll gradients to further separate subsets of lymphocytes into medium buoyant density (fraction B) and high buoyant density (fraction C) cell populations. Prior to cell addition, wells were coated with monoclonal antibodies by addition of 0.1 ml each antibody at 5 ug/ml in PBS per microtiter well. Following antibody addition, all wells were incubated overnight at 4 degrees and each well was washed free of unbound antibody by PBS rinsing prior to addition of cells. Each cell fraction was then incubated for 18 hours on either ICR-1.1, ICR-4.2 or control antibodies to human major Histocompatibility Complex Class I (MHC Class I). For these experiments 2×10^5 cells per well were added in a volume of 0.2 ml RPMI-1640 containing 10% FCS to individual wells of a 96 well flat bottom microtiter plate (Costar, Cambridge, Mass.). After 18-20 hours incubation at 37° C., the cells were collected from the microtiter wells and washed twice in RPMI-1640 media containing 10% FCS and adjusted to 1×10^6 per ml in RPMI-1640 containing 10% FCS. […]

CEM cells = assay: Detergent resistance (cytoskeleton association) assay, CEM
Method: PBL or washed CEM cell suspensions ([…]) were dispensed into Falcon 12×75 mm tubes in ice-cold PBS-5% FBS, pelleted, and resuspended in 50 μl of FITC-conjugated anti-ICAM-R monoclonal antibody 26E3D-1 or 26I10E-2 adjusted to saturating concentration in the same buffer. Antibody binding was permitted to proceed for 30 minutes on ice, afterwhich unbound antibody was removed by pelleting cells which had first been resuspended in 1 ml of […] through an underlaid cushion (0.7 ml) of neat (undiluted) FBS.
For groups stained with FITC-conjugated monoclonal antibody only, the 1 ml suspension was divided into two equal parts, each of which was separately underlaid with FBS, centrifuged, and the supernatant removed by aspiration. Cell pellets were then resuspended in 200 ul of control buffer (13 mM Tris pH 8.0, 150 mM NaCl, 2 mM MgCl2, 2 mM EGTA, 2% FBS, 2.5 ug/ml aprotinin, 1 mM PMSF, 10 mM iodoacetamide) or detergent buffer [0.5% NP-40 (v/v) (US Biochemical, Cleveland, Ohio) in control buffer] and held for 20 minutes at room temperature, or overnight at 4° C., prior to FACS analysis. For groups in which cell surface-bound monoclonal antibody was crosslinked with secondary antibodies, following the first antibody staining step, washed cell pellets were resuspended in 50 ul of FITC-goat anti-mouse IgG (Sigma) diluted 1:100 in PBS-5% FCS and incubated for 30 minutes on ice. […]

[2] = test system: CD4+ T cells with allogeneic epidermal cells; assay: Langerhans cell alloantigen presentation to CD4+ T cells; conditions: 50 μg antibody
Method: Blocking experiments were performed to determine whether the observed ICAM-R expression on Lcs was functionally important in antigen presentation. CD4^+ T cells were prepared from peripheral blood and 10^5 CD4^+ T cells were combined with 4×10^4 epidermal cells harvested from keratome biopsies of normal skin of an individual allogenic to the T cell donor. Proliferation was measured by ^3H thymidine uptake. Alloantigen presentation was unaffected by addition of 50 μg IgG1 isotype control. […] Inhibition was 73% of that produced by addition of anti-LFA-1 (anti-CD11a) antibody.

B1: ICR-1.1: anti-ICAM-R monoclonal antibody, IgG2a, domain 1, ATCC HB 11053 (antibody, V domains shown)
VH: QVQLQQSGAELAKPGASVKMSCKASGYTFTVYWMHWVKQRPGQGLEWIGYINPNTDYTEYNQRFQDKATLTADKSSSTAYMQLSSLTSEDSAVYYCARWGGNSYGLDYWGQGTSVTVSS
VL: QIVLTQSPALMSASPGEKVTMTCSASSSVSYIYWYQQKPRSSPKPWIYLTSNLASGVPARFSGSGSGASYSLTISIMEAEDAATYYCQQWKSIPLTFGAGTKLELK
time to peak F-actin content (Jurkat T leukemic cells; OKT3 plus gam, ICR-1.1 without gam): ≤ 60 min
F-actin content (Jurkat T leukemic cells; OKT3 plus goat anti-mouse crosslinker (gam), ICR-1.1 without gam): slight transient increase in F-actin content
cellular G-actin (Jurkat T leukemic cells; with gam crosslinker): gradual decrease in cellular G-actin
rise of F-actin content (Jurkat T leukemic cells; with gam crosslinker, prolonged plateau): 75-100%
IL-2 produced relative to prepulse on negative control antibodies [1]: less than 50%
greater increase in detergent resistance, crosslinked antibody (CEM cells; CEM): 2-3 fold
ICAM-R association with cytoskeleton (detergent resistance), antibody alone (CEM cells; FITC-conjugated antibody, similar in PBL): negligible

B2: ICR-8.1: anti-ICAM-R monoclonal antibody, IgG1, domain 1, ATCC HB 11232 (antibody, V domains shown)
VH: EIQLQQTGPELVKPGASVKISCKASGYSFTDCIILWVKQSHGKGLEWIGKINPYFGTTTYNLKFKGKATLTVDKSSSTAHMQLNSLTSEDSAVYYCARKEAYPDAMDYWGQGTSVTVSS
VL: DAVMTQTPLSLPVSLGDQASISCRSSQSLVHSNGDTYLHWYLQKPGQSPQLLIYKVSNRFSGVPDRFSGSGSGTDFTLKLSRVEAEDLGVYFCSQSTHVPYTFGGGTKLEIK
inhibition relative to that produced by anti-LFA-1 (anti-CD11a) antibody [2]: 73%
reduction in Lcs alloantigen-driven proliferative response of T cells [2]: 47%

Reference: US20040248211A1, “ICAM-related protein” (priority 1992, published 2004)
